Test results taken from US20050282743A1, “Molecular interactions in cells” (Arbor Vita Corporation, priority 2001, published 2005).

Key:
Test in all cases: G' assay
[1] = biological target: T1, GST-INADL PDZ domain 4 (Homo sapiens (Human)), Q8NI35
T1 chain: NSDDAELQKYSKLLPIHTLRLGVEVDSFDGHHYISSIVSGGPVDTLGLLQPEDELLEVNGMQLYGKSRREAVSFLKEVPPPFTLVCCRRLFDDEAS

[2] = biological target: T2, GST-KIAA1719 PDZ domain 4 (Homo sapiens (Human)), Q9C0E4
T2 chain: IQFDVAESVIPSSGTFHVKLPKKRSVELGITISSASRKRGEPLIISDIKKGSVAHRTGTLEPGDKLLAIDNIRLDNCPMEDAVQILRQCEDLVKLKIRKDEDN

[3] = biological target: T3, GST-KIAA0751(L) PDZ domain 1 (Mus musculus (Mouse)), Q9EQZ7
T3 chain: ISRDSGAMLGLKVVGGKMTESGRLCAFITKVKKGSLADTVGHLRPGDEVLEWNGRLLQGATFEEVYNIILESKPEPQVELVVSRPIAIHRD

[4] = biological target: T4, GST-MUPP1 PDZ domain 12 (Homo sapiens (Human)), O75970
T4 chain: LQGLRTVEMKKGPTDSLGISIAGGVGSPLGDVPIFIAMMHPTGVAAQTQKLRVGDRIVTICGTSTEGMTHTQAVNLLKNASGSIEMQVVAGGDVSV

[5] = biological target: T5, GST-KIAA1719 PDZ domain 6 (Homo sapiens (Human)), Q9C0E4
T5 chain: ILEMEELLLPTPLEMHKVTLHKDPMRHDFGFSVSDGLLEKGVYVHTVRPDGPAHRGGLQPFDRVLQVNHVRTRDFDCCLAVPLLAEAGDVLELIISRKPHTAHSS

[6] = biological target: T6, GST-GRIP 1 PDZ domain 7 (Homo sapiens (Human)), Q9Y3R0
T6 chain: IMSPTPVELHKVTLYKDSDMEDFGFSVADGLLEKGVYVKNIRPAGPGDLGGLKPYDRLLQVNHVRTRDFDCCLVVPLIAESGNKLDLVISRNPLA

[7] = biological target: T7, GST-ENIGMA PDZ domain 1 (Homo sapiens (Human)), Q9NR12
T7 chain: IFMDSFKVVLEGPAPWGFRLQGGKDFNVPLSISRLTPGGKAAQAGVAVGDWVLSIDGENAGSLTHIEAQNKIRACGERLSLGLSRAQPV

[8] = biological target: T8, GST-LIM Protein PDZ domain 1 (Homo sapiens (Human)), Q96HC4
T8 chain: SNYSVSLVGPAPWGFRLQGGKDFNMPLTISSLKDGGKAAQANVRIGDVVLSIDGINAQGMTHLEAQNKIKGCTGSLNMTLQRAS

[9] = biological target: T9, GST-novel PDZ gene PDZ domain 2 (Homo sapiens (Human)), Q9H5P4
T9 chain: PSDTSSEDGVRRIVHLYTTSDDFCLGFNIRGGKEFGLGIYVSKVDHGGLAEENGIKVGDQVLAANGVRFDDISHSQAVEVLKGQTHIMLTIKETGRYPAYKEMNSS

[10] = biological target: T10, GST-MUPP1 PDZ domain 7 (Homo sapiens (Human)), O75970
T10 chain: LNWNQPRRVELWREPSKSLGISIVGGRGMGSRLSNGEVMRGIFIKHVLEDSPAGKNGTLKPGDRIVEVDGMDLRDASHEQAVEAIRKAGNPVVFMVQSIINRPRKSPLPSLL

[11] = biological target: T11, GST-KIAA1719 PDZ domain 1 (Homo sapiens (Human)), Q9C0E4
T11 chain: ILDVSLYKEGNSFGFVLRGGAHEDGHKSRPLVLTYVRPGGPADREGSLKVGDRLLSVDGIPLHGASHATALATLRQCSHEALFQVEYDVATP

[12] = biological target: T12, GST-SIP1 PDZ domain 2 (Homo sapiens (Human)), Q15599
T12 chain: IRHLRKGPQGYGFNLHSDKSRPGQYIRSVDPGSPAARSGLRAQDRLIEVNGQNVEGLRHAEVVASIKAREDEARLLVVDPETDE

[13] = biological target: T13, GST-KIAA1415 PDZ domain 1 (Homo sapiens (Human)), Q8TCU6
T13 chain: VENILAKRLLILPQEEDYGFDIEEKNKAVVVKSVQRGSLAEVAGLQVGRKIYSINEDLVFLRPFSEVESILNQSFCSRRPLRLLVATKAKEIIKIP

[14] = biological target: T14, GST-KIAA1719 PDZ domain 5 (Homo sapiens (Human)), Q9C0E4
T14 chain: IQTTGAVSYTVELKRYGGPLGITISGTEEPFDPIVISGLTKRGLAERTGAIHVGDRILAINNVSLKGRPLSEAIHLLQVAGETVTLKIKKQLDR

[15] = biological target: T15, GST-prIL16 PDZ domains 1, 2, Q14005
T15 chain: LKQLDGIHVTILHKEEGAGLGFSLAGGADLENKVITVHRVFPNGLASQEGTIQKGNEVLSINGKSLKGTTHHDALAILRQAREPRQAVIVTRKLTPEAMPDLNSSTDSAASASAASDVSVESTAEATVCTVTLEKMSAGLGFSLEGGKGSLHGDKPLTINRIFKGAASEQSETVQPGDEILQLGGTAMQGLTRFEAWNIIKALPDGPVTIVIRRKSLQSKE

[16] = biological target: T16, GST-DLG1 PDZ domain 3 (Homo sapiens), Q12959
T16 chain: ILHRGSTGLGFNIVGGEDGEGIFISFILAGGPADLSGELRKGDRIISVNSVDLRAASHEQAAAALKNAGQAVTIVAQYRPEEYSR

[17] = biological target: T17, GST-AIPC PDZ domain 4 (Homo sapiens (Human)), O15018
T17 chain: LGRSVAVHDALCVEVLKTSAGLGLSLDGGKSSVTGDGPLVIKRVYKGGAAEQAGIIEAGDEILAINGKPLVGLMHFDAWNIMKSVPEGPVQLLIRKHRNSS

[18] = biological target: GST-Atrophin-1 Interacting Protein PDZ domain 2 (Homo sapiens (Human)), Q86UL8
GST-Atrophin-1 Interacting Protein PDZ domain 2 (Homo sapiens (Human)), Q86UL8, sequence (Q86UL8 other isoform, or with tags, fused parts or gaps): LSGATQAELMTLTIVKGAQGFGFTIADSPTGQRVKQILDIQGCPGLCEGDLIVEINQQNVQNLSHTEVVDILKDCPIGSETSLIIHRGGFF
Also: key of the grades not given here.

## HDFRRAFKKILARGDRKRIV (modifications not checked) [alpha-2A Adrenergic receptor]
[1]
  Classification: 1 A450 class
[2]
  Classification: 3 A450 class
[3]
  Classification: 3 A450 class

## ELLQFCRTPNPALKNGQYWV (modifications not checked) [CSPG4 (chondroitin sulfae proteoglycan 4, melanoma-associated)]
[4]
  Classification: 1 A450 class
[5]
  Classification: 5 A450 class
[6]
  Classification: 5 A450 class

## VPGALDYAAFSSALYGESDL (modifications not checked) [a-actinin 2]
[7]
  Classification: 5 A450 class
[8]
  Classification: 4 A450 class

## PIPAGGCTFSGIFPTLTSPL (modifications not checked) [KIA 1481]
[9]
  Classification: 1 A450 class

## KTMPAAMYRLLTAQEQPVYI (modifications not checked) [MINT-1]
[10]
  Classification: 3 A450 class

## ILNSIQVMRAQMNQIQSVEV (modifications not checked) [ephrin B2]
[11]
  Classification: 1 A450 class
[12]
  Classification: 2 A450 class
[13]
  Classification: 1 A450 class
[14]
  Classification: 4 A450 class
[15]
  Classification: 2 A450 class
[16]
  Classification: 1 A450 class
[17]
  Classification: 1 A450 class

## QISPGGLEPPSEKHFRETEV (modifications not checked) [TAX]
[18]
  Classification: 1 A450 class
